Measured values as given in patent publication US20260158070A1, “COMPOSITIONS AND METHODS FOR THE TREATMENT AND DIAGNOSIS OF CANCERS ASSOCIATED WITH SURFACE K-RAS” (UNIVERSITY OF MARYLAND, BALTIMORE, priority 2023, published 2026).

B1: mutated form of R11.1.6: R11.1.6 with codons in the regions that contact the K-RAS mutant scrambled to prevent binding (SEQ ID NO: 6) (protein)
chain: ATVKFTHQGEEKQVDISKIKFVWRKGYVRIWGYDEDGGWGAGKYVSEKDAPKELLQMLKKR
B2: M11.1.2: a scaffolding protein that binds mouse serum albumin (SEQ ID NO: 7) (protein)
chain: ATVKYTYRGEEKRVDISKIKWVNRWGQHLAFKYDKGGGAAGYGWVSEKDAPKELLQMLEKR
B3: E11.4.1: scaffold protein which binds human EGFR (SEQ ID NO: 8) (protein)
chain: ATVKFTYQGEEKQVDISKIMYVIRGGQRIAFGYDEGDGAWGDGIVSEKDAPKELLQMLEKQ

Legend:
[1] = system: Panc-1 (K-Ras G12D mutant); assay: Growth and viability of pancreatic cancer cells cultured with R11.1.6 constructs (cell count, Trypan blue); assay type: cell-based, human; conditions: Panc-1, 20,000 cells/well, counted after 5 days of culture
Experimental: We next evaluated growth as well as viability of two pancreatic cancer cell lines driven by either G12D (Panc-1) or G12C (MiaPaca-2) mutant K-Ras in vitro. We plated 20,000 cells/well in Dulbecco's modified Eagles media (DMEM) with 10% fetal bovine serum (FBS) in a flat bottom 96 well plate and counted cells after 5 days of culture. Viability of cells were calculated based on Trypan blue dye exclusion method, where dead cells were blue due to uptake of the viability dye and live cells were not stained. Viability was measured by using Countess II FL cell viability and cell counter instrument by Invitrogen (ThermoFisher USA).
Further evaluation of growth inhibition was performed with control Sulfolobus solfataricus-derived proteins of similar molecular weight. […] We started with 200,000 cells in a 96 well V-bottom plate and used BD phosflow buffer set III (BD biosciences, catalog number 558050) to stabilize and optimize the phosphor moiety. Next, we stained the cells with anti-phospho-Akt (ser473, Clone D9E) PE conjugated (Cell Signaling Technologies, Catalog number 5315S) at a concentration of 0.125 ug/100 ul or anti-phosho-ERK1/2, PE conjugated (ThermoFisher USA catalog number 12-9109-42) at a concentration of 0.125 ug/100 ul. Cells were washed in FACS staining buffer and run in a LSR Fortessa II flow cytometer (BD Biosciences, USA). Acquisition was done was using FACS DIVA software (BD Biosciences) and analysis was performed in FlowJo software (Tree Star, OR, USA). This was a significant finding as both Akt and ERK1/2 are important downstream molecules of K-Ras signaling, like that described for small molecule inhibitors of K-Ras (PMID: 12509763) (FIG. 1g).

[2] = system: Panc-1 (G12D mutant K-Ras); assay: Localization / surface binding of His-tagged constructs by anti-His flow cytometry and confocal microscopy; assay type: cell-based, human
Description: However, we considered that the small 7 kDa size of this scaffolding protein and disorganized cell membrane of malignantly transformed cells may allow for cytoplasmic penetration even in the absence of a cell penetrating peptide. To evaluate this possibility, we explored the cellular location of the R11.1.6 constructs by flow cytometry and confocal microscopy. For flow cytometry experiments, cells were stained first with Live/Dead far red fixable staining kit (ThermoFisher USA, catalog number L10120). Specifically, 0.2-0.4×10^6 cells were plated in a V bottom plate and 100 ul of the dye (1:1000 dilution of stock concentration following manufacturer's protocol) was added to each well and cells incubated in room temperature for 15 mins. Next cells were washed with PBS containing 2.5% FBS and 0.1% sodium azide (FACS buffer). Cells were then surface stained by adding 100 ul/well of anti-His PE labelled antibody (mouse anti-human antibody, BioLegend, CA, USA Catalog #362603) at a concentration of 10 μg/ml. Cells were washed twice with FACS buffer and fixed by cytofix buffer (BD biosciences catalog number 554655). […] Cells were acquired using LSR Fortessa II flow cytometer using FACS DIVA software (BD Biosciences USA) and analyzed using FlowJo (Tree Star USA). […]

| Molecule | growth and viability [1] | binding to the tumor cell surface (anti-His staining) [2] |
| --- | --- | --- |
| B1 | none of these control constructs could inhibit tumor growth |  |
| B2 | none of these control constructs could inhibit tumor growth |  |
| B3 | none of these control constructs could inhibit tumor growth | bind to the surface of tumor cells |
